Measured values published in US11591580B2, “K85 mutation-containing plant EPSPS mutant, and encoding gene and application thereof” (GEVOTO LLC, priority 2017, dated 2023).

B1: G0: wild-type soybean EPSPS represented by SEQ ID NO: 18; control group of Example 7 (protein)
chain: MAAAEKPSTAPEIVLEPIKDISGTITLPGSKSLSNRILLLAALSEGTTVVDNLLYSEDIHYMLGALRTLGLRVEDDQTTKQAIVEGCGGLFPTIKESKDEINLFLGNAGTAMRPLTAAVVAAGGNASYVLDGVPRMRERPIGDLVAGLKQLGADVDCFLGTNCPPVRVNGKGGLPGGKVKLSGSVSSQYLTALLMAAPLALGDVEIEIVDKLISVPYVEMTLKLMERFGVSVEHSGDWDKFLVHGGQKYKSPGNAFVEGDASSASYFLAGAAVTGGTITVNGCGTSSLQGDVKFAEVLEKMGAKVTWSENSVTVTGPPQDSSGQKVLQGIDVNMNKMPDVAMTLAVVALFANGQTTIRDVASWRVKETERMIAICTELRKLGATVEEGPDYCVITPPEKLNVTAIDTYDDHRMAMAFSLAACGDVPVTIKDPGCTRKTFPDYFEVLERFTRH
modifications: Glycine max
B2: G2: single-mutation soybean EPSPS mutant, SEQ ID NO: 22, only mutation P114(101)S but no K98(85)T (protein)
chain: MAAAEKPSTAPEIVLEPIKDISGTITLPGSKSLSNRILLLAALSEGTTVVDNLLYSEDIHYMLGALRTLGLRVEDDQTTKQAIVEGCGGLFPTIKESKDEINLFLGNAGTAMRSLTAAVVAAGGNASYVLDGVPRMRERPIGDLVAGLKQLGADVDCFLGTNCPPVRVNGKGGLPGGKVKLSGSVSSQYLTALLMAAPLALGDVEIEIVDKLISVPYVEMTLKLMERFGVSVEHSGDWDKFLVHGGQKYKSPGNAFVEGDASSASYFLAGAAVTGGTITVNGCGTSSLQGDVKFAEVLEKMGAKVTWSENSVTVTGPPQDSSGQKVLQGIDVNMNKMPDVAMTLAVVALFANGQTTIRDVASWRVKETERMIAICTELRKLGATVEEGPDYCVITPPEKLNVTAIDTYDDHRMAMAFSLAACGDVPVTIKDPGCTRKTFPDYFEVLERFTRH
modifications: Glycine max EPSPS mutant with mutation P114(101)S
B3: G1: single-mutation soybean EPSPS mutant, SEQ ID NO: 20, only mutation K98(85)T (protein)
chain: MAAAEKPSTAPEIVLEPIKDISGTITLPGSKSLSNRILLLAALSEGTTVVDNLLYSEDIHYMLGALRTLGLRVEDDQTTKQAIVEGCGGLFPTIKESTDEINLFLGNAGTAMRPLTAAVVAAGGNASYVLDGVPRMRERPIGDLVAGLKQLGADVDCFLGTNCPPVRVNGKGGLPGGKVKLSGSVSSQYLTALLMAAPLALGDVEIEIVDKLISVPYVEMTLKLMERFGVSVEHSGDWDKFLVHGGQKYKSPGNAFVEGDASSASYFLAGAAVTGGTITVNGCGTSSLQGDVKFAEVLEKMGAKVTWSENSVTVTGPPQDSSGQKVLQGIDVNMNKMPDVAMTLAVVALFANGQTTIRDVASWRVKETERMIAICTELRKLGATVEEGPDYCVITPPEKLNVTAIDTYDDHRMAMAFSLAACGDVPVTIKDPGCTRKTFPDYFEVLERFTRH
modifications: Glycine max EPSPS mutant with mutation K98(85)T

Key:
double knockout E. coli = assay: growth of E. coli transformed by genes encoding soybean EPSPS (wild type and mutants) in culture media containing different glyphosate concentrations (Example 7, FIG. 3); type: cell-based
[1] = system: transgenic rice seedlings; assay: glyphosate resistance of the EPSPS mutant in transgenic rice plants sprayed with glyphosate (Example 8, Table 1); type: in vivo, rice (Nipponbare); settings: for glyphosate resistance of transformed rice seedlings (in words): glyphosate sprayed at the 1× dosage; for glyphosate resistance / survival of transformed rice seedlings (in words): 2× glyphosate dosage
Description: A method for detecting the glyphosate resistance of the G1 soybean EPSPS mutant (SEQ ID NO: 20), G2 soybean EPSPS mutant (SEQ ID NO: 22) and G3 soybean EPSPS mutant (SEQ ID NO: 24) provided in Example 7, the R1 rice EPSPS mutant (SEQ ID NO: 4) provided in Example 5, and the Z1 maize EPSPS mutant (SEQ ID NO: 12) provided in Example 6 in the transgenic rice is as follows:
The plasmids (containing the EPSPS mutant gene) of the monoclonal resistant bacteria of pADV5-EPSPS in Examples 1-7 were extracted by a conventional method, followed by double enzyme digestion by Pac1 and BstEII, the small fragments were collected, and then the small fragments were ligated, using T4 DNA ligase, to the pGVP1 vectors that had undergone the same double enzyme digestion, to obtain a pGVP1-EPSPS vector having a structure as shown in FIG. 8.
In the present example, the glyphosate resistance of the EPSPS mutant in transgenic rice plants were verified. An experiment method is as follows:
The transgenic rice seedlings transplanted were uniformly arranged in a same experiment area (preventing leaves from overlapping). The areas occupied by the experiment groups and the control group were calculated, and according to the areas, glyphosate was sprayed at a 1× dosage of 1060 g/hectare (0.106 g/m^2). 2× dosage was 2120 g/hectare, 5× dosage was 5300 g/hectare, and 20× dosage was 21200 g/hectare.
Commercially available Roundup® 41% ammonium glyphosate was used. Roundup® ammonium glyphosate with corresponding volumes was taken according to the above sprayed concentrations, then diluted with 20 times of volume of water, and then uniformly sprayed on the plants in the experiment groups and the control group. After leaf surfaces were dry, the plants were moved into greenhouse or outdoor to cultivate.
After the glyphosate was sprayed at the 1× dosage, growth states of the plants in each group were observed and recorded on a 10th day, and glyphosate was sprayed to the survived plants at the 2× dosage. The growth states of the plants in each group were observed and recorded 10 days later, and glyphosate was sprayed to the survived plants at the 5× dosage. The growth states of the plants in each group were observed and recorded 10 days later, and glyphosate was sprayed to the survived plants at the 20× dosage. The growth states of the plants in each group were observed and recorded 10 days later, and results are shown in Table 1, wherein corresponding numbers of plants denoted by −, +, ++ and +++ are listed, and “%++&+++” is percentage of plant having medium and high glyphosate resistance to the total number of plants observed.

[2] = culture media containing 1 mM glyphosate
[3] = 1X dosage (1060 g/hectare glyphosate), recorded on 10th day
[4] = 2X dosage (2120 g/hectare) sprayed to plants surviving 1X, recorded 10 days later
[5] = 5X dosage (5300 g/hectare) sprayed to plants surviving 2X, recorded 10 days later
[6] = 20X dosage (21200 g/hectare) sprayed to plants surviving 5X, recorded 10 days later

| Molecule | % ++&+++ (percentage of plant having medium and high glyphosate resistance to the total number of plants observed) [1, 3] | number of plants with resistance + (low glyphosate resistance) [1, 3] | number of plants with resistance ++ (medium glyphosate resistance) [1, 3] | number of plants with resistance +++ (high glyphosate resistance) [1, 3] | number of plants with resistance − (no glyphosate resistance) [1, 3] | % ++&+++ (percentage of plant having medium and high glyphosate resistance to the total number of plants observed) [1, 4] | number of plants with resistance + (low glyphosate resistance) [1, 4] | number of plants with resistance ++ (medium glyphosate resistance) [1, 4] | number of plants with resistance +++ (high glyphosate resistance) [1, 4] | number of plants with resistance − (no glyphosate resistance) [1, 4] | % ++&+++ (percentage of plant having medium and high glyphosate resistance to the total number of plants observed) [1, 5] | number of plants with resistance + (low glyphosate resistance) [1, 5] | number of plants with resistance ++ (medium glyphosate resistance) [1, 5] | number of plants with resistance +++ (high glyphosate resistance) [1, 5] | number of plants with resistance − (no glyphosate resistance) [1, 5] | % ++&+++ (percentage of plant having medium and high glyphosate resistance to the total number of plants observed) [1, 6] | number of plants with resistance + (low glyphosate resistance) [1, 6] | number of plants with resistance ++ (medium glyphosate resistance) [1, 6] | number of plants with resistance +++ (high glyphosate resistance) [1, 6] | number of plants with resistance − (no glyphosate resistance) [1, 6] | other results |
| --- | --- | --- | --- | --- | --- | --- | --- | --- | --- | --- | --- | --- | --- | --- | --- | --- | --- | --- | --- | --- | --- |
| B1 | 0.0% | 0 | 0 | 0 | 36 | 0.0% | 0 | 0 | 0 | 36 | 0.0% | 0 | 0 | 0 | 36 | 0.0% | 0 | 0 | 0 | 36 | growth of transformed E. coli (double knockout E. coli; [2]): substantially could not grow; glyphosate resistance of transformed rice seedlings (in words) [1]: had no resistance and died |
| B2 | 47.1% | 6 | 5 | 3 | 3 | 0.0% | 0 | 0 | 0 | 17 | 0.0% | 0 | 0 | 0 | 17 | 0.0% | 0 | 0 | 0 | 17 | growth of transformed E. coli (double knockout E. coli; culture media containing 20 mM glyphosate): could grow; glyphosate resistance / survival of transformed rice seedlings (in words) [1]: all rice seedlings containing the soybean EPSPS mutant G2 died; glyphosate resistance of transformed rice seedlings (in words) [1]: certain resistance to glyphosate |
| B3 | 5.4% | 6 | 2 | 0 | 29 | 0.0% | 4 | 0 | 0 | 33 | 0.0% | 0 | 0 | 0 | 37 | 0.0% | 0 | 0 | 0 | 37 | growth of transformed E. coli (double knockout E. coli; [2]): obviously superior to the control group (G0); glyphosate resistance / survival of transformed rice seedlings (in words) [1]: some of the rice seedlings transformed by G1 still survived; glyphosate resistance of transformed rice seedlings (in words) [1]: obviously superior to that of G0 |
